Patent publication US20040172686A1

Molecular target: yeast APC (anaphase promoting complex of Schizosaccharomyces pombe)
Experiment: cell-based or functional assay

HOBBIT (HBT) protein of Arabidopsis thaliana (from UniProt Q8LGU6 1-744)
growth (optical density) of S. pombe nuc2ts at restrictive temperature, HBT cDNA against empty vector control: 4 fold
